Blank lines part the entries; values can stand above or below the molecule they belong to.
Tests used:
[1] = target: T1, human recombinant monoacylglycerol lipase (hMAGL) (Homo sapiens, UniProt Q99685); experiment: fluorogenic assay with substrate 1c, […] min pre-incubation; assay type: biochemical
T1 construct: gene MGLL
T1 sequence (Q99685 1-303): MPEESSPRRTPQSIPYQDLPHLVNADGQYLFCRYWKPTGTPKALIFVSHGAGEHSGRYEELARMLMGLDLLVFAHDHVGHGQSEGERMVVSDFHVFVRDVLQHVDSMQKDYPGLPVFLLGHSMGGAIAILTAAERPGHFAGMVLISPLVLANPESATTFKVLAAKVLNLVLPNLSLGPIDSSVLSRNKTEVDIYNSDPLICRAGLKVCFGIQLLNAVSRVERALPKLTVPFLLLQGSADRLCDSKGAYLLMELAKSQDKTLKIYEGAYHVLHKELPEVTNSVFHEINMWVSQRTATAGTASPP

[2] = target: T1, human recombinant monoacylglycerol lipase (hMAGL); experiment: fluorogenic hydrolysis at […], normalized to 1c; assay type: biochemical
[3] = substrate: CCCCC(CC)C(=O)Oc1ccc2nc3ccc(=O)cc-3oc2c1; experiment: fluorogenic hydrolysis kinetics (Km), low Vmax; assay type: biochemical, Homo sapiens
[4] = substrate: CCCCC(C)C(=O)Oc1ccc2nc3ccc(=O)cc-3oc2c1; experiment: fluorogenic hydrolysis kinetics (Km); assay type: biochemical, Homo sapiens
[5] = substrate: CCCCCCCC/C=C\CCCCCCCC(=O)Oc1ccc2nc3ccc(=O)cc-3oc2c1; experiment: fluorogenic hydrolysis kinetics (Km); assay type: biochemical, Homo sapiens
[6] = substrate: CCCCCCCCCCCC(=O)Oc1ccc2nc3ccc(=O)cc-3oc2c1; experiment: fluorogenic hydrolysis kinetics (Km); assay type: biochemical, Homo sapiens
[7] = substrate: CCCCCCC(CCCC)C(=O)Oc1ccc2nc3ccc(=O)cc-3oc2c1; experiment: fluorogenic hydrolysis kinetics (Km), very low Vmax; assay type: biochemical, Homo sapiens
purified protein = substrate: CCCCCCCC(=O)Oc1ccc2nc3ccc(=O)cc-3oc2c1; experiment: purified protein; assay type: biochemical, Homo sapiens

- IC50 [1]: 8.1 µM
Molecule: O=C(Nc1cccc(-c2ccccc2)c1)OC1CCCCC1 [URB602]

Molecule: CCCCC/C=C\C/C=C\C/C=C\C/C=C\CCCC(=O)Oc1ccc2nc3ccc(=O)cc-3oc2c1 [1g, 7-hydroxyresorufinyl arachidonate]
- fluorogenic hydrolysis at 5 μM, normalized to 1c [2]: Normalized hydrolysis of different substrates by hMAGL.

B1: human recombinant monoacylglycerol lipase (hMAGL) (Homo sapiens) (protein)
chain: T1 sequence (Q99685 1-303)
- Km [3]: 2.8 µM
- Vmax [3]: 0.0013 µmol/min/mg
- Km [4]: 1.09 µM
- Vmax [4]: 0.033 µmol/min/mg
- Km [5]: 0.42 µM
- Vmax [5]: 0.013 µmol/min/mg
- Km [6]: 0.31 µM
- Vmax [6]: 0.024 µmol/min/mg
- Km [7]: 1.1 µM
- Vmax [7]: 0.00067 µmol/min/mg
- Km (purified protein): 0.66 µM
- Vmax (purified protein; catalytic active site near Ser122 (docking only)): 0.106 µmol/min/mg

— paper PMC6631453, “Set-Up and Validation of a High Throughput Screening Method for Human Monoacylglycerol Lipase (MAGL) Based on a New Red Fluorescent Probe” (Molecules, 2019)
